Assays:
Experiment in all cases: ELISA
[1] = molecular target: T1, SARS-CoV-2 spike extracellular domain (SARS-CoV-2, UniProt P0DTC2 14-1213)
T1 construct: extracellular domain; also called spike protein of SARS-CoV-2

[2] = molecular target: T2, Human coronavirus OC43 spike extracellular domain (human coronavirus OC43, UniProt P36334 14-1297)
T2 construct: extracellular domain

[3] = molecular target: T3, SARS-CoV-2 spike S1 subunit (SARS-CoV-2, UniProt P0DTC2 16-685)
T3 construct: domain: S1 subunit

[4] = molecular target: T4, MERS spike extracellular domain (Middle East respiratory syndrome …, UniProt K9N5Q8 18-1296)
T4 construct: extracellular domain
T4 sequence (K9N5Q8 18-1296): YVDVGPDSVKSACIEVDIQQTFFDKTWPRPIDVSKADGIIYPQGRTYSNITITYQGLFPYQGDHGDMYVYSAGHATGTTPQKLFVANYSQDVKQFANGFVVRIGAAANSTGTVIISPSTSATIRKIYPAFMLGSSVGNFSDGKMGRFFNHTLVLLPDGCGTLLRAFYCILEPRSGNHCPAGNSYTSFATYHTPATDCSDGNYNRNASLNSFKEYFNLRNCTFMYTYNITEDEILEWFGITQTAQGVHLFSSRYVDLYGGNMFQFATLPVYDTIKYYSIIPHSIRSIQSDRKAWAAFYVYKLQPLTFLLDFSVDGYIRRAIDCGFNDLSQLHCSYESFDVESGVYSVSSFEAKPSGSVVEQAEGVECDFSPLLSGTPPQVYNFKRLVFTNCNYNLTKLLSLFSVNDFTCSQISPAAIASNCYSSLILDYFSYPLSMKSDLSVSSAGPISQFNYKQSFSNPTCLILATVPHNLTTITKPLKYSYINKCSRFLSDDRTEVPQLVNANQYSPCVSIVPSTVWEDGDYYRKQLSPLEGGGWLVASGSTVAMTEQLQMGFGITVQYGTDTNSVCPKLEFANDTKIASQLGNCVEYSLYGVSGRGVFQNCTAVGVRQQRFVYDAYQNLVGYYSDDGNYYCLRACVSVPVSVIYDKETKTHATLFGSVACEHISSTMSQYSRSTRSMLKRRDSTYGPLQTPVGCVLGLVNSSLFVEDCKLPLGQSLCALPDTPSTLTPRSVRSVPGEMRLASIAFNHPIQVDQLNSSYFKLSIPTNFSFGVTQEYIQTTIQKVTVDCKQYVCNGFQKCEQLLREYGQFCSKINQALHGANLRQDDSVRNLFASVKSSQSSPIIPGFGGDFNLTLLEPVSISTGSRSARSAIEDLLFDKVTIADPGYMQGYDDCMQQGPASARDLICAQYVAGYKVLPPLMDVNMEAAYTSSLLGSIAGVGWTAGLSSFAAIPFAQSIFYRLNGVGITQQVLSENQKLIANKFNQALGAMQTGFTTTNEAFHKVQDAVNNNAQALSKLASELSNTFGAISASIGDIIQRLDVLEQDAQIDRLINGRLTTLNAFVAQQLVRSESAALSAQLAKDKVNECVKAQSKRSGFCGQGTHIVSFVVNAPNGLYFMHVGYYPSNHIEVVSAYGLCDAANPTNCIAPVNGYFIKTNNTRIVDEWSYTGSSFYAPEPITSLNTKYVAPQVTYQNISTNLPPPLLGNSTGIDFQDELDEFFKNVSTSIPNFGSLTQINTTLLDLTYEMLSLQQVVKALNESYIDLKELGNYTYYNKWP

[5] = molecular target: T5, SARS-CoV-2 spike S2 subunit (SARS-CoV-2, UniProt P0DTC2 686-1213)
T5 construct: domain: S2 subunit

SARS spike S1 subunit = molecular target: T6, SARS spike S1 subunit (severe acute respiratory syndrome …, UniProt P59594 14-667)
T6 construct: domain: S1 subunit

[6] = molecular target: T7, SARS-CoV-2 spike receptor binding domain (RBD) (SARS-CoV-2, UniProt P0DTC2 319-541)
T7 construct: also called SARS-CoV-2 RBD

T2 sequence (P36334 14-1297): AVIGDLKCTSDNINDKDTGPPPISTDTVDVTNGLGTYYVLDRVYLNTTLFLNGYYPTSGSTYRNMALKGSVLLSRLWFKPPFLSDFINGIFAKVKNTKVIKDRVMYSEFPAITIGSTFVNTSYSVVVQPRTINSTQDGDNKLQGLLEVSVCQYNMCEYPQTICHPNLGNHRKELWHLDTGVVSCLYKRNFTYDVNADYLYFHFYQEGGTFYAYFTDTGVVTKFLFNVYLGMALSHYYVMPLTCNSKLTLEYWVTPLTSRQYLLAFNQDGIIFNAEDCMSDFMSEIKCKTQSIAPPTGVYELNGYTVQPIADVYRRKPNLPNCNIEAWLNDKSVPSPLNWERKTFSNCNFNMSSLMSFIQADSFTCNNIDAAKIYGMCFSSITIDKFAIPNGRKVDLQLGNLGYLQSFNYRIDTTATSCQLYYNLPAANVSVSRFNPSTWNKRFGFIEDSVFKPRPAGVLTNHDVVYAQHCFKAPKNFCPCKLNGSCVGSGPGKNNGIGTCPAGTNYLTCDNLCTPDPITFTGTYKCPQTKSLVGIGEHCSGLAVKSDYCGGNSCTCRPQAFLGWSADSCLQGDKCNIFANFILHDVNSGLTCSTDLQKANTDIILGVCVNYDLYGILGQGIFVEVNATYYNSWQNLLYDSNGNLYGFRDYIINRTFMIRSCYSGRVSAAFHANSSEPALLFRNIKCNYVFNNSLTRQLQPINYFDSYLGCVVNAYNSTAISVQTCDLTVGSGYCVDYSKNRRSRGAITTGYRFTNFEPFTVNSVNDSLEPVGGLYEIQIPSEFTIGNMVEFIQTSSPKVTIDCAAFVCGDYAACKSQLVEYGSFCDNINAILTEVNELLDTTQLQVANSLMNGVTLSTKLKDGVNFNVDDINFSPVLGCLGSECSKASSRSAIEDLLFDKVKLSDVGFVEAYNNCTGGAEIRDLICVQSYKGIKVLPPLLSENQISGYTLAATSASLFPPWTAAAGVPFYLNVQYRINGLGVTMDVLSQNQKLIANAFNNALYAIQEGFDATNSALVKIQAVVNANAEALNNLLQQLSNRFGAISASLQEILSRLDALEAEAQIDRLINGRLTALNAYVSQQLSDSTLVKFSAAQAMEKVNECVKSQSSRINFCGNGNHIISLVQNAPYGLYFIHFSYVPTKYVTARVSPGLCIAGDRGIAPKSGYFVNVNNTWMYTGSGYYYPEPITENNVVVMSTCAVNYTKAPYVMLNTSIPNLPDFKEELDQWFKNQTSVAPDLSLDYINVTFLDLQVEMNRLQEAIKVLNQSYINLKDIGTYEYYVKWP

B1: FD 1D (antibody, V domains shown)
VH: EVQLVESGGGVVQPGRSLRLSCAASGFTFSSYAMHWVRQAPGKGLEWVAVISYDGSNKYYADSVKGRFTISRDNSKNTLYLQMNSLRAEDTAVYYCARAGSGSYLNWFDPWGQGTLVTVSS
VL: EIVLTQSPATLSLSPGERATLSCRASQSVSSYLAWYQQKPGQAPRLLIYDASNRATGIPARFSGSGSGTDFTLTISSLEPEDFAVYYCQQRSNWPITFGQGTRLEIK
- binding result [1]: binds
- binding result [2]: binds
- binding result [3]: no binding
- binding result [4]: binds
- binding result [5]: binds
- binding result (SARS spike S1 subunit): binds
- binding result [6]: no binding
